What was measured:
RAJI cells = test: JNG assay, co-culture with RAJI cells; assay type: cell-based; settings: JNG cells expressing construct, co-culture with Raji
Method in brief: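 Read-out is NFAT-driven GFP measured by flow cytometry after ~4–18 h co-culture of SAR-expressing JNG cells with target cells (E:T about 1:2). SARs were introduced by lentiviral spinfection and selected with puromycin or blasticidin when possible; scores (+/- to 5+ ≈ 5–50% GFP+) are relative to parental JNG cells.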

Nalm6 cells = test: JNG assay, co-culture with Nalm6 cells; assay type: cell-based; settings: co-culture with Nalm6
Method: Cellular supernatant is collected and assayed for the induction of cytokines (e.g., IL2).
JNG (Jurkat cells expressing EGFP under an NFAT promoter) were infected with lentiviral vectors encoding different single chain and multi-chain SARs by spinfection in the presence of 8 µg/ml of Polybrene® (Sigma, Catalog no. H9268). The Jurkat-NFAT-GFP cells are engineered in such a way that the IL-2 promoter, which carries NFAT binding sites, is cloned upstream of the GFP gene. These cells have been used to study signaling via TCR and CAR. The different SARs were stably expressed in Jurkat NFAT-GFP cells by lentiviral mediated gene transfer, followed by selection with puromycin or blasticidin. No drug selection was used in case the construct lacked an antibiotic resistance gene. The SAR-expressing Jurkat-NFAT-GFP cells were cocultured with the target cells at E:T ratio of approximately 1:2 for approximately 4 hours to 18 hours. When the interaction between SIRs and their target antigen results in activation of the NFAT pathway, GFP expression is induced. […] GFP expression was monitored by FACS analysis. The Jurkat-NFAT-GFP (parental) cells were used as control. The structure of different constructs can be determined based on their names. For example, the construct CD8SP-CD19-hu-mROO5-1-vL-[hTCRa-C SDVP]-F-F2A-Spe-IgHSP-Apa-CD20-vHH-2HCD25-G4S-CDl9-hu-mROO5-1-vH-Mlu-[hTCRb-KACIAH]-F-P2A-PAC has the following modules from 5′ to 3′ direction: a CD8 signal peptide (CD8SP), the CD19 targeting hu-mROO5-1 vL fragment (CD19-hu-mROO5-1), Xho1 cloning site, human TCRa constant chain containing CSDVP mutations (hTCRa-CSDVP), Furine cleavage site (F), F2A ribosomal skip sequence (F2A), SpeI site, human IgH signal peptide (IgHSP), Apa I restriction enzyme site, camelid CD20-2HCD25-VHH module targeting CD20, BamHI restriction enzyme site, Glycinex4-serine linker (G4S), BstI restriction enzyme site, CD19-hu-mROO5-1-vH fragment targeting CD19, Mlu I restriction enzyme site, human TCRb constant chain containing KACIAH mutations ([hTCRb-KACIAH]), Furine cleavage site (F), P2A ribosomal skip sequence and Puromycin resistance gene (PAC). The sequence of the other constructs in the table can be similarly determined from their names and by referring to the different Tables of this disclosure that provide the names and SEQ ID NO of the different modules. Alternatively, the composition and modular architecture of the different SAR constructs can be determined from their sequences by bioinformatics tools, including using nucleic acid and amino acids homology searches. A SAR is considered positive in the assay in case the SAR expressing Jurkat-NFAT-GFP cells show greater % GFP positive cells when cultured with the target cell line as compared to parental Jurkat-NFAT-GFP cells. The signs +/-, +, 2+ etc. after the name of the cell lines indicate the relative degree of positivity on the Jurkat-NFAT-GFP assay as measured by the % GFP positive cells after culture of the SAR expressing Jurkat-NFAT-GFP cells with that cell line above the % GFP cells observed in parental Jurkat NFAT-GFP cells serving as controls. In general, the number +/-, +, 2+, 3+, 4+, 5+ refer to approximately 5%, 10%, 20%, 30%, 40% and 50% GFP positive cells. The % of GFP induction in the above assay is dependent not only the relative strength of the SAR but also, among other factors, on the relative level of expression of the SAR in the JNG cells and the relative level of expression of the target antigen in the target cell line. To control for the difference in gene transduction efficiency of the different SAR constructs, the experiment was conducted with JNG cells transduced with SAR constructs co-expressing a drug resistance gene (e.g., puromycin or PAC) followed by drug selection to generate a stable population of SAR-expressing cells. […]

Row | Molecule | NFAT-GFP ASSAY: Raji (RAJI cells) | NFAT-GFP ASSAY: Nalm6 (Nalm6 cells)
1 | 22209 (protein) MALPVTALLLPLALLLHAARPACPYINIYNAEPANPSEKNSPTQYAYGTGGGGSGGGGSGGGGSEFDIQMTQSPSSLSASVGDRVTITCKASDHINNWLAWYQQKPGQAPKLLIYGATTLETGVPSRFSGSGSGTDYTLTISSLQPEDFATYYCQQSWNTPWTFGQGTKLEIKRLEDLKNVFPPEVAVFEPSKAEIAHTQKATLVCLATGFYPDHVELSWWVNGKEVHSGVCTDPQPLKEQPALNDSRYCLSSRLRVSATFWQNPRNHFRCQVQFYGLSENDEWTQDRAKPVTQIVSAEAWGRADCGITSASYHQGVLSATILYEILLGKATLYAVLVSALVLMAMVKRKDSRGRAKRSGSGATNFSLLKQAGDVEENPGPTSATMDWIWRILFLVGAATGAHSGPQVQLQESGGGLAQAGGSLRLSCAASGRTFSMGWFRQAPGKEREFVAAITYSGGSPYYASSVRGRFTISRDNAKNTVYLQMNSLKPEDTAVYYCAANPTYGSDWNAENWGQGTQVTVSSGSGGGGSGGGGSGGGGSFEQVQLQQPGAELVKPGASVKMSCKASGYAFSSYWINWMKQKPGQGLEWIGQIYPGDGDTNYNGKFKGRATLTADTSSSTAYMQLSSLTSEDSAVYFCARSITTVVGCAMDYWGQGTSVTVSSTRIQNPDPAVYQLRDSKSSDKSVCLFTDFDSQTNVSQSKDSDVYITDKCVLDMRSMDFKSNSAVAWSNKSDFACANAFNNSIIPEDTFFPSSDVPCDVKLVEKSFETDTNLNFQNLSVIGFRILLLKVAGFNLLMTLRLWSSRAKRSGSGVKQTLNFDLLKLAGDVESNPGPSRGHMTEYKPTVRLATRDDVPRAVRTLAAAFADYPATRHTVDPDRHIERVTELQELFLTRVGLDIGKVWVADDGAAVAVWTTPESVEAGAVFAEIGPRMAELSGSRLAAQQQMEGLLAPHRPKEPAWFLATVGVSPDHQGKGLGSAVVLPGVEAAERAGVPAFLETSAPRNLPFYERLGFTVTADVEVPEGPRTWCMTRKPGA | 2+ (refer to approximately 5%, 10%, 20%, 30%, 40% and 50% GFP positive cells) | 2+ (refer to approximately 5%, 10%, 20%, 30%, 40% and 50% GFP positive cells)
2 | 22091 (protein) MALPVTALLLPLALLLHAARPQLQLQESGPGLVKPSETLSLTCTVSGDSISSGDYYWGWIRQPPGKGLEWIGHIYYSGVTYYNPSLKSRVTISVDTSRNQFSLKLSSVTAADTAVYYCTREDSSNWRSRGQGTLVTVSSLEDLKNVFPPEVAVFEPSKAEIAHTQKATLVCLATGFYPDHVELSWWVNGKEVHSGVCTDPQPLKEQPALNDSRYCLSSRLRVSATFWQNPRNHFRCQVQFYGLSENDEWTQDRAKPVTQIVSAEAWGRADCGITSASYHQGVLSATILYEILLGKATLYAVLVSALVLMAMVKRKDSRGRAKRSGSGATNFSLLKQAGDVEENPGPTSMDWIWRILFLVGAATGAHSFEVQLLESGGGLIQPGGSLRLSCAASGFTFSSHAMTWVRQAPGKGLEWVSAISGSGDYTHYADSVKGRFTISRDNSKNTVYLQMNSLRAEDSAVYYCAKDEDGGSLLGHRGQGTLVTVSSTRIQNPDPAVYQLRDSKSSDKSVCLFTDFDSQTNVSQSKDSDVYITDKCVLDMRSMDFKSNSAVAWSNKSDFACANAFNNSIIPEDTFFPSPESSCDVKLVEKSFETDTNLNFQNLSVIGFRILLLKVAGFNLLMTLRLWSSRAKRSGSGVKQTLNFDLLKLAGDVESNPGPSRGHMTEYKPTVRLATRDDVPRAVRTLAAAFADYPATRHTVDPDRHIERVTELQELFLTRVGLDIGKVWVADDGAAVAVWTTPESVEAGAVFAEIGPRMAELSGSRLAAQQQMEGLLAPHRPKEPAWFLATVGVSPDHQGKGLGSAVVLPGVEAAERAGVPAFLETSAPRNLPFYERLGFTVTADVEVPEGPRTWCMTRKPGA | + (refer to approximately 5%, 10%, 20%, 30%, 40% and 50% GFP positive cells) | +/- (refer to approximately 5%, 10%, 20%, 30%, 40% and 50% GFP positive cells)
